Measurements from article PMC7708043 (Nucleic Acids Research, 2020).

T1: mEGFP-ALC1 (UniProt Q86WJ1 1-897)
T1 sequence (looked up): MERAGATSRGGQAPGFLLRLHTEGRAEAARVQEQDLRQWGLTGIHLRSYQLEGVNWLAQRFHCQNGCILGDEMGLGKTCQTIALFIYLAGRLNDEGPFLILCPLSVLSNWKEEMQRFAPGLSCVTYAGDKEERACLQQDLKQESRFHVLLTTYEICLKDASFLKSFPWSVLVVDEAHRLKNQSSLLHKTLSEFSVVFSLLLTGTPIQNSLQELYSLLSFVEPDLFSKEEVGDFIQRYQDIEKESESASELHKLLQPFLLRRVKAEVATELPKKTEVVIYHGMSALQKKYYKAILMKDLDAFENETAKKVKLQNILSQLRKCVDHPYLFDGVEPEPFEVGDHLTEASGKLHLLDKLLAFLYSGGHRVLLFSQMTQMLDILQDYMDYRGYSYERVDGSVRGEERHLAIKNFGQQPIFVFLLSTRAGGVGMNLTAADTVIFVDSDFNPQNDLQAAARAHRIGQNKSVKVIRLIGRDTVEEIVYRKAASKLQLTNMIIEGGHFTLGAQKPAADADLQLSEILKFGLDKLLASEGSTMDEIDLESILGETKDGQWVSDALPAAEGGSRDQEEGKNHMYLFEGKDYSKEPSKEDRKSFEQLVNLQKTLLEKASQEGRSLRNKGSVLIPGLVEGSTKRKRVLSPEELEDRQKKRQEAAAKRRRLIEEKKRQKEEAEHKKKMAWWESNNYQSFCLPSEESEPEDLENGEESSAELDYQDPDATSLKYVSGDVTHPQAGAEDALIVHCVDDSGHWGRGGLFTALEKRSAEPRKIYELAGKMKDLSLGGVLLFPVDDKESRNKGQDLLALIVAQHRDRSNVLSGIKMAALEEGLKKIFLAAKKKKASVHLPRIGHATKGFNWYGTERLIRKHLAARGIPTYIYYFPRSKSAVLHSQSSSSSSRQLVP

B1: mCherry-TRIM33 (natural protein, UniProt Q9UPN9 1-1127, looked up)
chain: MAENKGGGEAESGGGGSGSAPVTAGAAGPAAQEAEPPLTAVLVEEEEEEGGRAGAEGGAAGPDDGGVAAASSGSAQAASSPAASVGTGVAGGAVSTPAPAPASAPAPGPSAGPPPGPPASLLDTCAVCQQSLQSRREAEPKLLPCLHSFCLRCLPEPERQLSVPIPGGSNGDIQQVGVIRCPVCRQECRQIDLVDNYFVKDTSEAPSSSDEKSEQVCTSCEDNASAVGFCVECGEWLCKTCIEAHQRVKFTKDHLIRKKEDVSESVGASGQRPVFCPVHKQEQLKLFCETCDRLTCRDCQLLEHKEHRYQFLEEAFQNQKGAIENLLAKLLEKKNYVHFAATQVQNRIKEVNETNKRVEQEIKVAIFTLINEINKKGKSLLQQLENVTKERQMKLLQQQNDITGLSRQVKHVMNFTNWAIASGSSTALLYSKRLITFQLRHILKARCDPVPAANGAIRFHCDPTFWAKNVVNLGNLVIESKPAPGYTPNVVVGQVPPGTNHISKTPGQINLAQLRLQHMQQQVYAQKHQQLQQMRMQQPPAPVPTTTTTTQQHPRQAAPQMLQQQPPRLISVQTMQRGNMNCGAFQAHQMRLAQNAARIPGIPRHSGPQYSMMQPHLQRQHSNPGHAGPFPVVSVHNTTINPTSPTTATMANANRGPTSPSVTAIELIPSVTNPENLPSLPDIPPIQLEDAGSSSLDNLLSRYISGSHLPPQPTSTMNPSPGPSALSPGSSGLSNSHTPVRPPSTSSTGSRGSCGSSGRTAEKTSLSFKSDQVKVKQEPGTEDEICSFSGGVKQEKTEDGRRSACMLSSPESSLTPPLSTNLHLESELDALASLENHVKIEPADMNESCKQSGLSSLVNGKSPIRSLMHRSARIGGDGNNKDDDPNEDWCAVCQNGGDLLCCEKCPKVFHLTCHVPTLLSFPSGDWICTFCRDIGKPEVEYDCDNLQHSKKGKTAQGLSPVDQRKCERLLLYLYCHELSIEFQEPVPASIPNYYKIIKKPMDLSTVKKKLQKKHSQHYQIPDDFVADVRLIFKNCERFNEMMKVVQVYADTQEINLKADSEVAQAGKAVALYFEDKLTEIYSDRTFAPLPEFEQEEDDGEVTEDSDEDFIQPRRKRLKSDERPVHIK
B2: mCherry-ALC1 (natural protein, UniProt Q86WJ1 1-897, looked up)
chain: MERAGATSRGGQAPGFLLRLHTEGRAEAARVQEQDLRQWGLTGIHLRSYQLEGVNWLAQRFHCQNGCILGDEMGLGKTCQTIALFIYLAGRLNDEGPFLILCPLSVLSNWKEEMQRFAPGLSCVTYAGDKEERACLQQDLKQESRFHVLLTTYEICLKDASFLKSFPWSVLVVDEAHRLKNQSSLLHKTLSEFSVVFSLLLTGTPIQNSLQELYSLLSFVEPDLFSKEEVGDFIQRYQDIEKESESASELHKLLQPFLLRRVKAEVATELPKKTEVVIYHGMSALQKKYYKAILMKDLDAFENETAKKVKLQNILSQLRKCVDHPYLFDGVEPEPFEVGDHLTEASGKLHLLDKLLAFLYSGGHRVLLFSQMTQMLDILQDYMDYRGYSYERVDGSVRGEERHLAIKNFGQQPIFVFLLSTRAGGVGMNLTAADTVIFVDSDFNPQNDLQAAARAHRIGQNKSVKVIRLIGRDTVEEIVYRKAASKLQLTNMIIEGGHFTLGAQKPAADADLQLSEILKFGLDKLLASEGSTMDEIDLESILGETKDGQWVSDALPAAEGGSRDQEEGKNHMYLFEGKDYSKEPSKEDRKSFEQLVNLQKTLLEKASQEGRSLRNKGSVLIPGLVEGSTKRKRVLSPEELEDRQKKRQEAAAKRRRLIEEKKRQKEEAEHKKKMAWWESNNYQSFCLPSEESEPEDLENGEESSAELDYQDPDATSLKYVSGDVTHPQAGAEDALIVHCVDDSGHWGRGGLFTALEKRSAEPRKIYELAGKMKDLSLGGVLLFPVDDKESRNKGQDLLALIVAQHRDRSNVLSGIKMAALEEGLKKIFLAAKKKKASVHLPRIGHATKGFNWYGTERLIRKHLAARGIPTYIYYFPRSKSAVLHSQSSSSSSRQLVP

How the values were obtained:
Assay in all cases: FRET or BRET
mEGFP-ALC1 = target: T1, mEGFP-ALC1
mEGFP-PARP1 [1] = target: T2, mEGFP-PARP1 (UniProt P09874 1-1014)
T2 sequence (P09874 whole entry): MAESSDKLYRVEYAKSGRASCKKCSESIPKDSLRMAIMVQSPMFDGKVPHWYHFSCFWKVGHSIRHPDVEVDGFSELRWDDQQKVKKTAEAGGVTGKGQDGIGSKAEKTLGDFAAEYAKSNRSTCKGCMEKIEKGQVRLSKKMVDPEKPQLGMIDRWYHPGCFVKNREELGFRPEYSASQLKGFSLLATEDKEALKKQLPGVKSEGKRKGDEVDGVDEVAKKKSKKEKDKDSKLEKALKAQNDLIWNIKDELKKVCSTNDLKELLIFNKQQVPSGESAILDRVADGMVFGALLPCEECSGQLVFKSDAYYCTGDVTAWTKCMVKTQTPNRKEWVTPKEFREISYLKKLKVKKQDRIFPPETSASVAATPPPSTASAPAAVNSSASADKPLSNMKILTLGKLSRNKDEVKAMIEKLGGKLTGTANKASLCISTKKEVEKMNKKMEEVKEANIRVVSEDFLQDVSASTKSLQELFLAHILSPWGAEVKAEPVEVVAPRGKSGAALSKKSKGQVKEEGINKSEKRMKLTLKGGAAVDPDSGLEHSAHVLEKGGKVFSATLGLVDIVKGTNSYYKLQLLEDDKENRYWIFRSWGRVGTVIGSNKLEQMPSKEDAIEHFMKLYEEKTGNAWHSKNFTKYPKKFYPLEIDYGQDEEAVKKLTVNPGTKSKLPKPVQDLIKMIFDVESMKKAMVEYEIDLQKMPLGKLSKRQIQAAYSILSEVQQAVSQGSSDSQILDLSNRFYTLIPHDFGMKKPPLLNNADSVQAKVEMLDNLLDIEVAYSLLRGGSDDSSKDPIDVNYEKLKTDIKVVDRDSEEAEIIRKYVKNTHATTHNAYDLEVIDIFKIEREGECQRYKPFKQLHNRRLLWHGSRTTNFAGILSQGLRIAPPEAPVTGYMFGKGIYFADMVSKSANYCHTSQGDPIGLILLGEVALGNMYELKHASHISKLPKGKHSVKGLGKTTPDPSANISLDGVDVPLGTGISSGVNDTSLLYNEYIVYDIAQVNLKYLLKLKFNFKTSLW

mEGFP-PARP1 [2] = target: T2, mEGFP-PARP1; remark: listed apart in the source

Binder | median FRET efficiency (at the damage site) (mEGFP-ALC1) [%] | median FRET efficiency (at the damage site) (mEGFP-PARP1 [1]) [%] | median FRET efficiency (1 min after damage) (mEGFP-PARP1 [2]) [%] | median FRET efficiency (5 min after damage) (mEGFP-PARP1 [2]) [%]
B1 | 2.2 | – | – | –
B2 | – | 5.5 | 5.8 | 3.8
